{"source": "patent US5969097A", "about": "“Human guanylin” (G. D. Searle & Co., priority 1992, dated 1999)", "molecules": {"B1": {"name": "rat guanylin: 15 amino acid rat guanylin peptide; shares 14 of 15 amino acids with human guanylin (peptide)", "peptide": "MNAWLLSVLCLLGALAVLVEGVTVQDGDLSFPLESVKQLKHLREVQEPTLMSHKKFALRLPKPVAPELCSQSAFPEALRPLCEKPNAEEILQRLEAIAQDPNTCEICAYAACTGC"}}, "target": "T1, intestinal guanylate cyclase (Homo sapiens, UniProt P25092)", "T1 construct": "host or cells: T84 human colon carcinoma cells", "T1 sequence (P25092 24-1073)": "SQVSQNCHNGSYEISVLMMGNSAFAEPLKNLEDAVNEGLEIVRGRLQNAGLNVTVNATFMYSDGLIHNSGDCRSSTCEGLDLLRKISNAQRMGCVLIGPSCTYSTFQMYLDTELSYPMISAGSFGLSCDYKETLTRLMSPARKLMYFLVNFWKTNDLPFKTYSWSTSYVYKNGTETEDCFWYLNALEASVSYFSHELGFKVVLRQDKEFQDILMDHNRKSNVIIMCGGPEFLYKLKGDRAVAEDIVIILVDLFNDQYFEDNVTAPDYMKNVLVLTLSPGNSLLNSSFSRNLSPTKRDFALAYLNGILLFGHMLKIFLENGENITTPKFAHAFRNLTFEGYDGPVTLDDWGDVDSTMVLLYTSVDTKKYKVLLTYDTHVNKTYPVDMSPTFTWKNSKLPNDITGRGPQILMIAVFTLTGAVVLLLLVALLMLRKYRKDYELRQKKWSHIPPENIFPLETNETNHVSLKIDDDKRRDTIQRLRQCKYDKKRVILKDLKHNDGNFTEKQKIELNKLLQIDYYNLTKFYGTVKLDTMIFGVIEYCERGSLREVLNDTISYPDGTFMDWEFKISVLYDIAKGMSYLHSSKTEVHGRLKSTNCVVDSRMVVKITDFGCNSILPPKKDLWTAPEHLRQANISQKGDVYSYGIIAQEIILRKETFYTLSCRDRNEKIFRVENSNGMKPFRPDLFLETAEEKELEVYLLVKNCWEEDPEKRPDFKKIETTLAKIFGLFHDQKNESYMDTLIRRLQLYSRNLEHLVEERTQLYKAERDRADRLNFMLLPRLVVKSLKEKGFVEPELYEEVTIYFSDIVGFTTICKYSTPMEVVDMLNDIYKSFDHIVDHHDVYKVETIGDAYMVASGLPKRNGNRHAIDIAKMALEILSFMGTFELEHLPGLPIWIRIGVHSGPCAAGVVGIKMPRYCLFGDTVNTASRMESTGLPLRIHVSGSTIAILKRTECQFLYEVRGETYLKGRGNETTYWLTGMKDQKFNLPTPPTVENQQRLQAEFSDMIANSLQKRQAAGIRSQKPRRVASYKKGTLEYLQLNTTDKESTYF", "test": "T84 cell bioassay: intracellular cyclic GMP levels", "format": "cell-based", "conditions": "compared with STa; T84 cells, FIG. 3a", "experimental": "a) Activity in the T84 cell bioassay. As determined by analysis of the effects of the peptides on intracellular cyclic GMP levels.\nCell Culture: A cultured human colon carcinoma cell line (T84) was obtained from the American Type Culture Collection (Rockville, Md.) at passage 52. Cells were grown to confluency in 24-well culture plates with a 1:1 mixture of Ham's F12 medium and Dulbecco's modified Eagle's medium (DMEM), supplemented with 10% fetal calf serum, 100 IU/ml penicillin, and 100 μg/ml streptomycin. Cells were used at passages 54-60.\nCyclic GMP determination: Monolayers of T84 cells in 24-well plates were washed twice with 1 ml/well DMEM, then incubated at 37 C. for 10 min with 0.5 ml DMEM containing 1 mM isobutylmethylxanthine (IBMX), a cyclic nucleotide phosphodiesterase inhibitor. Agents and fractions were then added for the indicated time as described in the results section. The media was then aspirated and the reaction terminated by the addition of ice cold 0.5 ml of 0.1N HCl. Aliquots were then evaporated to dryness under nitrogen and then resuspended in 5 mM sodium acetate buffer, pH 6.4. The samples were subsequently measured for cyclic GMP by RIA as described by Steiner et al. (16).", "data": [{"molecule": "B1", "values": [{"measurement": "relative potency to activate intestinal guanylate cyclase (T84 cell cyclic GMP)", "value": "about one order of magnitude less potent than STa"}]}]}
